Four substances from paper PMC7401798 can be followed below.

The target in assay [1] is Taxol-stabilized microtubules (UniProt P02550). Nature of the assay: co-sedimentation.
For assay [2], the target named is HIS-TAN1-GFP (maize). Nature of the assay: pull-down.
HIS-TAN1-GFP (maize), sequence (C0PM98 whole entry): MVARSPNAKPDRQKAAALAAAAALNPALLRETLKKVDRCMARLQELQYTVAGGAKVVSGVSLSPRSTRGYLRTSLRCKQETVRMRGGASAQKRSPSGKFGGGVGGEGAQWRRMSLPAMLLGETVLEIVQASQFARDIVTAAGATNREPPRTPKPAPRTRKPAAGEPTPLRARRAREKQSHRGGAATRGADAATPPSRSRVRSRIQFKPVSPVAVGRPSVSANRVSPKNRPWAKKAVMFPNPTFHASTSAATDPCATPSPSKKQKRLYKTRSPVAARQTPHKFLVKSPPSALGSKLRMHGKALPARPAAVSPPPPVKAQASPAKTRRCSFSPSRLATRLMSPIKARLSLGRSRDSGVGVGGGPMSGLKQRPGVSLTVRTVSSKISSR

HIS-TAN1-GFP (natural protein), sequence (C0PM98 whole entry): as above
Atto488-tagged HIS-TAN1-GFP (natural protein), sequence (C0PM98 whole entry): as above

In assay [1], “6xHIS-tagged ZmTAN1 (TANGLED1) (natural protein)” had a K0.5 of 1.08 µM.
Regarding “Atto488-tagged HIS-TAN1-GFP (natural protein)”, in assay [1], the apparent affinity is 0.05 µM.
On to HIS-TAN1-GFP (natural protein), for which the apparent affinity in assay [1] amounted to 0.595 µM.
Turning to “tubulin dimers (from UniProt P02550 1-451) (complex)”, in assay [2], the stoichiometry N (tubulin dimers per HIS-TAN1-GFP) amounted to 2.
